The nanobody polyreactivity screen of Harvey et al. (2022)

Assay: yeast display, Sf9 membrane polyspecificity reagent, FACS + sequencing; frameworks hold sequencing errors
Outline: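 Polyreactivity labels are assigned by the sorting gate from which each nanobody was recovered. The gates were low and high (top ~1%), set on anti-HA fluorescence for expression and streptavidin fluorescence for reagent binding. Before sorting, galactose-induced (36–48 hours) yeast display cells were stained for 1 hour at 4 °C with 10% biotinylated, detergent-solubilized Sf9 membrane reagent.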

Sequence | polyreactivity (PSR sort gate)
QVHLVESGGGLVQAGGSLRLSCAASGSIIGKYAMGWYRQAPGKERELVADITNSGGSTYYADSVKGRFTISRDNAKNTVYLQMNSLKPEDTAVYYCAADYLYPPYYEFYFWGQGTQVTVSS | low polyreactivity
QVQLVESGGGLVQAGGSLRLSCAASGRTILVYAMGWYRQAPGKERELVAAISRSGGSTYYADSVKGRFTISRDNAKNTVYLQMNSLKPEDTAVYYCAAKNTGRYYWGQGTQVTVSS | high polyreactivity
QVQLVESGGGLVQAGGSLRLICDASGRIFGDNAMGWYRQAPGKEREFVATINGSGGSTYYADSVKGRFTISRDNAKNTVYLQMNSLKPEVTAVYYCFVQQNYGYDYWGQGTQVTVSS | low polyreactivity
QVQLVESGGGLVQAGGSLRLSCAASGSTFGLYTMGWYRQAPGKERELVASISIGGSTYYADSVKGRFTISRDNAKNTVYLQMNSLKPEDTAVYYCAADVKRDRVWGGDYWGQGTQVTVSS | low polyreactivity
QVQLVESGGGLVQAGGSLRLSCAASGRTFSVNAMGWYRQAPGKERELVAAISWDGGSTYYADSVKGRFTISRDNAKNTVYLQMNSLKPEDTAVYYCNQDLYYAYDYWGQGTQVTVSS | low polyreactivity
QVQLVESGGGLVQAGGSLRLSCAASGNTLDAYAMGWYRQAPGKERELVAAITSGGSTYYADSVKGRFTISRDNAKNTVYLQMNSLKPEDTAVYYCNADGHPSDPCYDYWGQGTQVTVSS | low polyreactivity
QVQLVESGGGLVQPGGRLLLSSAASGSIFDYYVMGWYRLEPVKERELVAAISWSGASTYYADSVKGRFTISRDNAKNTVYVKMNSLKPEDTAVYYCAADYGVNTLIDYDYWGQGTQVTVSS | low polyreactivity
QVQLVESGGGLVQARGSLRLSCASSGSIFNYYDMGWYRQAPGKERELVAAIDTSGGSTYFADSVKGRFTISRDNAKNTVYLQMNRLKPEDTAVYYCAAEWPYYDKIYDYWGQGTQVTVSS | low polyreactivity
QVQLVESGGGLVQAGGSLRLSCAASGSTFGFNVMGWYRQAPGKERELVAVITSDGNTYYADSVKGRFTISRDNAKNTVYLQMNSLKPEDTAVYYCAVSELGTPYGYWGQGTQVTVSS | low polyreactivity
QVQLVESGGGLVQAGGRLRLSCAASGSIFQSYAMGWYRQAPGKERELVAVITGGGGSTYYADSVKGRFTISRDNAKNTVYLQMNSLKPEDTAVYYCAARPVTSYAYGSWGQGTQVTVSS | low polyreactivity
QVQLVESGGGLVQAGGSLRISCAASGSTYYNAMGWYRQAPGKERELVAAFRFRSGSTYYADSVKGRFTISRDNAKNTVYLQMNSLKPEDTAVYYCAADYKRSWRYAYNYWGQGTQVTVSS | high polyreactivity
QVQLVESGGGLVQAGGSLRLSCAASGRIFQGYAMGWYRQAPGKERELVAAIRTGGSTNYADSVKGRFTISRDNAKNTVYLQMNSLKPEDTAVYYCNAVGQLYFYFPRGDYWGQGTQVTVSS | low polyreactivity
QVQIVESGGGLVQAGGSLRLSCAASGNIFDRYAMGWYRQAPGKERELVAGITWSGGSTYYADSVKGRFTISRDNAKNTVYLQMNSLKPDDTAVYYCGQANYYWGLGTQVTVSS | low polyreactivity
PVQLVESGGGLVQAGGSLRLSCAASGRTFLVYSMGWYRQAPGKERELVAAISNGGSTNYADSVKGRFTISRDNAKKTVYLQMNSLKPEDTALYDCATRIHKWYYYWGQGTQVTVSS | high polyreactivity
QVQLQESGGGLVQAGGDLRLSCAASGNIFRDYIMGWNRQAPGKEREFVAGIDRGANTNYADSVKGRFTISRDNAKNTVYLQMNSLKPEDTAVYYCAVHTDIVPDFIYWGQGTQVTVSS | low polyreactivity
QVQLVESGGGLVQAGGSLRLSCAASGSTFTYYAMGWYRQAPGKERELVAAINYSGGSTYYADSVKGRFTISRDNAKNTVYLQMNSLKPEDTAVYYCAADGYIRQYVTYYYWGQGTQVTVSS | low polyreactivity
QVQLVESGGGLVQAGGSLRLSCAASGSIFYYYAMGWYRPAPGKEWELVAAISSTVSTNYADSVKGRFTISRDNAKNTVYLQMNSLKPEDTAVYYCAAAQRVNHVWYDYWGQGTQVTVSS | low polyreactivity
QVQLVESGGGLVQAGGSLRLSGAASGRTFGVYVMGWYRQAPGKERELVAAIDDSGGSTYYADSVKGRFTISRDNAKNTVYLQMNSLKPEDTAVYYCAADFYVVYWGTYSVGYDYWGQGTQVTVSS | low polyreactivity
QVQLVETGGGLVQAGGSLRLSCAASGSIFSIYAMGWYRQAPGKERELVAAISWSGGSTYYADSVKGRFTISRDNAKNTVYLQMNSLKPEDTAVYYCLRQDYHYHPYDYWGQGTQVTVSS | low polyreactivity
QVQLVESGGGLVQAGGSLRLSCAASGRIVTDSAMGWYSQAPGKDREFVAAIRRSGGSTYYAGCVKGRCTISRDTANNTVYLQMNSLKPEDTAVYYCAARGATSYYIFHSWGQGTQVTVSS | high polyreactivity
QVQLVESGGGLVQAGGSLRLSCAASGRTFQTYAMGWYRQAPGKERELVAAISSDGSTYYADSVKGRFTISRDNAKNTVYLQMNSLKPEDTAVYYCNTDIGDKYYYHVRVDYEYWGQGTQVTLSS | low polyreactivity
QVQLVETGGRLVQAGGSLRVSCAASGITFECYAMGWSRQATGKERELVAAIRSSGTSTYYADSVKGRFTISRDNAKNTVYLQMMSLKPEDTAVYYCNLARSSSRYDYWGQGTQVTVSS | low polyreactivity

Sequence | polyreactivity (PSR sort gate)
QVQLVESGAGLVQAGASLRLICAASGRTFPDYAMGWYRQAPGTERELVAAIYSGGGTNYADSVKGRFTISRDNAKNTVYLQMNSLKQEDTAVYYCAATGVPGWVGFDYWGQGTQVTVSS | low polyreactivity
QVQLVESGGGLVQAGGSLRLSCAASGSTLRGNAMGWYRQAPGKERELVAAISWSGGITYYADSVKGRFTISRDNAKNTVYLQMNSLKPEDTAVYYCAVDRPRGGPTKYERRTKHGYWGQGTQVTVSS | low polyreactivity
QVQLVESGGGIVQAGCSLRLSCAPSGSTFKNNAMGWDRQAPGKEREFVASIYKRGGSTYYADSVKGRFTISRDNAKNTVYLQKKSLTPEDTAVYYCAKTYWSYGWSHGDYGEVDYWGQGTQVNVSS | high polyreactivity
QVQLVESGGGLVQAGGSLRLSCAASGRTFRRYAMGWYRQAPGKERELVAAISYSGTTTYYADSVKGRFTISRDNAKNTVYLQMNSLKPEDTAVYYCNKATAFGLDYWGQGTQVTVSS | high polyreactivity
QVQLVESGGGLVQAGGSLRLSCAASGLTFEVYAMGWYRQAPGKERELVAAISSGGGSTYYADSVKGRFTISRDNAKYTVYLQMNSLKPEDSAVYYCNAVAKLYYWRYDYWGQGTQVTVSS | low polyreactivity
QVQLVESGGGLVQAGGSLRLSCASSGSIFYRNTMGWYRQAPGKEREFVAAIRTSGGSTYYADSVKGRFTISRDNAKNTVYLQMNSLKPEDTAVYYCAAEYRYGWAYRKGGDYWGQGTQVTVSS | high polyreactivity
QVQLVESGGGLVQAGGSLRLSCAASGYIFSAYAMGWSRQAPGKERELVAVITSGGGTYYADSVKGRFTISRDNAKNTVYLLMNSLKTEDTAVYYCAAGPLCPYASRYGYWGQGTQVTVSS | high polyreactivity
QVQLVESGGGLVQAGGILRLSCAASGSIFDFYAMGWYRQAPGKERELVAAISGSGGSTYYADSVKGRFTISRDNAKNTVYLQMNSLKPEDTAVYYCSYYYWGQGTQVTVSS | low polyreactivity
QVQLVESGGGLVQAGGSLRLSCAASGYTFSYANAMGWYRQAPGKERELVASISSTGGRTYYADSVKGRFTISRDNAKNTVYLQMNSLKPEDTAVYYCASRYWRYGYWGQGTQVTVSS | high polyreactivity
QDQLVESGGGLVQAGGSLRLSCAASGRIFRTYAMGWYRQAPRQERELVAAIRSGGSTKYADSVKGRFTISRDNAKNTVYLQMKSLKPEDTAVYYCAAAVLGRYSAGDGYWGQGTQVTVSS | low polyreactivity
QVQLVESGGGLVQAGGSLRLSCAASGSIFVGYAMGWYRQAPGKERELVASITTPGGSTHYADSVKGRFTISRDNAKNTVYLQMNSLKPEDTAVYYCAADSLSNGVLQYLPGYDYWGQGTQVTVSS | low polyreactivity
QVQLVESGGGLVQAGGSLRLSCAASGRTFGYYAMGWYRQAPGKERELVASITTGGSTDYADSVKGRFTISRDNAKNTVYLQMNSLKPEDTAVYYCAAKPNPYTKARYYYWGQGTQVTVSS | high polyreactivity
QVQLVESGGGLVQAGGSLRLSCAASGFTFIYAMGWYRQAPGTERELVAAITRSGGSTYYADSVKGRFTISRDNAKNTVYLQMNSLKPEDTAVYYCAAEAVIYYSSYFEYYYWGQGTQVTVSS | high polyreactivity
QVQLVESGGGLVQAGGSLRLSCAASGLILYHYAMGWYREAPGKERELVAAISSGGITHYADSVKGRFTISRDNAKNTVYLQMNILKPEDNAVYYCNAVSYYWHDFDYWGQGTQVTVSS | high polyreactivity
QVQLVESGGGLVQAGGSLRLRCAASGSTFVPYAMGWYRQAPWKERELVAAITWNGGRTYYADSVKGRYTISRDNANNTVYLQMNSLKPEDTAVYFCNGLSYTWACYYWGQGTRVTVSS | high polyreactivity
QVQLVESGGGLVQAGGSLRLSCAASGIIFGRYAMGWYRQAPGKERELVAAINGSGGSTYYADSVKGRFTISRDNAKNTVYLQMNSLKPEDTAVYYCAVVYYGSIFVLEYDYWGQGTQVTVSS | high polyreactivity
QVQLVESGGGLVQAGGSLRLSCAASGSTFTANAMGWYRQAPWKERELVASISAREGSTYADSVKGRFTISRDNANNTVYLQMNSLKPEDTAVYYCNAAYFHIFPYDYDYWGQCTQVTVSS | low polyreactivity
QVQLVESGGGLVQAGGSLRLSCAASGSIFISNAMGWYRQAPGKERELVAAISRSGARTYYADSVKGRFTISRDNAKNTVYLQMNSLKPEDTAVYYCAVDGYSPYKYDYWGQGTQVTVSS | high polyreactivity
QVQLEESGGGLDQAGVSLRLSCAASGRTFPSNTMGWYRQAPGKERELVAAISWRGGSTYYADSVKGRFTITRDNAKKTVYLQMNSLKPEDTAVYYCNTLTKAYRSKSYYEWGHGTQVTVSS | high polyreactivity
QDHLVESGGGLVQAGGSLRLTCAASGSIFISYAMGWYRQAPGKERELVAAISIRGTRTYYADSVKGRFTISRDNAKNTVSLQMNSLKPEDTAVYFCAADASYTEGMDYWGQGTQVTVSS | high polyreactivity
QDQLVESGGGLDQAGGSLRLSCAASGSTFSPYAMGWYRQAPGKERELVAGITSSGGDSYYADSVKGRFTISRDNAKNTVYLQMKSLKPEDTAVYYCAADWWVLGQLCFDYWGQGTQVNVSS | low polyreactivity
